The text below walks through data of patent US20190224101A1.

The target of test [1] is control cells (Staphylococcus epidermidis), whole cells (Staphylococcus epidermidis). Briefly: mono-scFv-phage ELISA on control cells. (An ELISA detects its analyte on a solid surface through an enzyme-linked reagent.)
Test [2] concerns the target Propionibacterium acnes (P. acnes) whole cells, surface antigen not identified (Propionibacterium acnes). Briefly: mono-scFv-phage ELISA on whole P. acnes.
Test [3] has the same target. Briefly: IgG ELISA on whole P. acnes.
Test [4] deals with control cells (Staphylococcus epidermidis), whole cells (Staphylococcus epidermidis). Briefly: IgG ELISA on control cells.

B1: mono-scFv-phage No. 8 (scFv, V domains shown)
VH: QVQLVQSGGGVVQPGGSLRLSCAASGFSFNDYAMHWVRQVPGKGLEWVSSISWNSRSTVYAASVEGRFSISRDNSKNSLYLQMNSLRAEDAAVYYCTTDLGVVPAAIYAFDIWGQGTMVTVSS
VL: DIQMTQSPSVMSASVGDRVNITCRASQGITNWLAWYQQKPGKAPKLLISAASSLQSGVPSRFSGSGSGTDFTLTISSLQPDDFATYYCQQTATFQITFGQGTRLDIK
With B1, the O.D. 450 nm in test [1] amounted to 0.0044 O.D. 450 nm; in test [2], 1.82 O.D. 450 nm. This molecule also gave an ELISA O.D. value in test [2] of 2.08 O.D.

B2: 8F antibody (antibody, V domains shown)
VH: QVQLVQSGGGVVQPGGSLRLSCAASGFSFNDYAMHWVRQVPGKGLEWVSSISWNSRSTVYAASVEGRFSISRDNSKNSLYLQMNSLRAEDAAVYYCTTDLGVVPAAIYAFDIWGQGTMVTVSS
VL: DIQMTQSPSVMSASVGDRVNITCRASQGITNWLAWYQQKPGKAPKLLISAASSLQSGVPSRFSGSGSGTDFTLTISSLQPDDFATYYCQQTATFQITFGQGTRLDIK
With B2, the values for the O.D. 450 nm in test [3] and in test [4] were 2.32 O.D. 450 nm and -0.0268 O.D. 450 nm, respectively.

B3: mono-scFv-phage No. 10 (scFv, V domains shown)
VH: QVQLVESGGGLIQPGGSLRLSCVASGFTVSSSFMSWVRLAPGKGLEWVALAYSGGNTYYADSVKGRFTVSRDDSSNTLYLQMNSLRAEDTAVYYCSCEGKAVSGSRDLHFEFWSPGTLVTVSS
VL: SYELTQAPSLSVSPGQTANIICSGDNLRTKYVSWYQQKPGQAPVLVIYNDNDRPSGIPERFSGTNSGNTAALTISRVEAGDEADYYCQVWDSSSDHLIFGGGTKLTVL
The molecule B3 had an O.D. 450 nm in test [1] of 0.0023 O.D. 450 nm. In test [2], this molecule yielded an ELISA O.D. value of 2.07 O.D and an O.D. 450 nm of 1.81 O.D. 450 nm.

B4: 10F antibody (antibody, V domains shown)
VH: QVQLVESGGGLIQPGGSLRLSCVASGFTVSSSFMSWVRLAPGKGLEWVALAYSGGNTYYADSVKGRFTVSRDDSSNTLYLQMNSLRAEDTAVYYCSCEGKAVSGSRDLHFEFWSPGTLVTVSS
VL: SYELTQAPSLSVSPGQTANIICSGDNLRTKYVSWYQQKPGQAPVLVIYNDNDRPSGIPERFSGTNSGNTAALTISRVEAGDEADYYCQVWDSSSDHLIFGGGTKLTVL
For B4, the figures for the O.D. 450 nm in test [3] and in test [4] were 0.00605 O.D. 450 nm and -0.0248 O.D. 450 nm, respectively.

B5: mono-scFv-phage No. 3 (scFv, V domains shown)
VH: QMQLVQSGAEVKKPGASVKVSCKASGYTFTDYYIHWVRQAPGQGLEWMGWINPNSGAPEFAQRFQGRVSMTRDASINTTYMELSGLRSEDTAVYYCVKGLEHAAGSAIFDRWGQGTMVTVSS
VL: QTVVTQEPSFSVSPGGTVTLTCGLTSGSVSTSHFPSWYQQTPGQAPRTLIYFKDTRSSGVPDRFSGSILGNKAALTITGAQADDESDYYCALSMGSGIWVFGGGTKLTVL
B5 displayed an O.D. 450 nm in test [1] of 0.0002 O.D. 450 nm. Besides, in test [2], the ELISA O.D. value stood at 3.62 O.D and the O.D. 450 nm stood at 3.36 O.D. 450 nm.

B6: 3F antibody (antibody, V domains shown)
VH: QMQLVQSGAEVKKPGASVKVSCKASGYTFTDYYIHWVRQAPGQGLEWMGWINPNSGAPEFAQRFQGRVSMTRDASINTTYMELSGLRSEDTAVYYCVKGLEHAAGSAIFDRWGQGTMVTVSS
VL: QTVVTQEPSFSVSPGGTVTLTCGLTSGSVSTSHFPSWYQQTPGQAPRTLIYFKDTRSSGVPDRFSGSILGNKAALTITGAQADDESDYYCALSMGSGIWVFGGGTKLTVL
Turning to B6, the O.D. 450 nm in test [3] is 0.0149 O.D. 450 nm; in test [4], -0.0105 O.D. 450 nm.

B7: mono-scFv-phage No. 6 (scFv, V domains shown)
VH: QVQLVESGGGVVRPGGSLRLSCTASGFTFDDHGMSWVRQAPGKGLEWVSTINLNGGSTAYADSVKGRFTISRDNAKNSLYLQMNSLRAEDTAVYYCSTRHLHHWGQGTLVTVSS
VL: DIVMTQTPLSSPVTLGQPASISCRSSQSLVHSNGNTYLTWLQQRPGQPPRLLIHKISNRFSGVPDRFSGSGAGTDFTLKISRVEAEDVGVYYCVQAKQFPLTFGQGTRLEIK
As to B7, the results for the O.D. 450 nm in test [1] and in test [2] were 0.0041 O.D. 450 nm and 1.95 O.D. 450 nm, respectively. The same molecule had an ELISA O.D. value in test [2] of 2.22 O.D.

B8: 6F antibody (antibody, V domains shown)
VH: QVQLVESGGGVVRPGGSLRLSCTASGFTFDDHGMSWVRQAPGKGLEWVSTINLNGGSTAYADSVKGRFTISRDNAKNSLYLQMNSLRAEDTAVYYCSTRHLHHWGQGTLVTVSS
VL: DIVMTQTPLSSPVTLGQPASISCRSSQSLVHSNGNTYLTWLQQRPGQPPRLLIHKISNRFSGVPDRFSGSGAGTDFTLKISRVEAEDVGVYYCVQAKQFPLTFGQGTRLEIK
For B8, the O.D. 450 nm in test [3] was 2.36 O.D. 450 nm; in test [4], 0.0114 O.D. 450 nm.
